Measurements from publication PMC8699916, “Synthesis of Human Bone Morphogenetic Protein-2 (hBMP-2) in E. coli Periplasmic Space: Its Characterization and Preclinical Testing” (Cells, 2021).

Experiments:
[1] = target: the molecule itself; assay: non-reducing SDS-PAGE; 15% polyacrylamide gel, non-reducing conditions, Coomassie Brilliant Blue G-250 staining; bought reference preparation
[2] = target: the molecule itself; assay: non-reducing SDS-PAGE with Western blot; 15% gel, non-reducing conditions, semi-dry transfer to nitrocellulose, anti-hBMP-2 rabbit IgG 1:2000; periplasmic fluid of W3110 grown at 30 °C and 42 °C

B1: met-hBMP-2 reference preparation from GenScript (natural protein, human)
chain: MQAKHKQRKRLKSSCKRHPLYVDFSDVGWNDWIVAPPGYHAFYCHGECPFPLADHLNSTNHAIVQTLVNSVNSKIPKACCVPTELSAISMLYLDENEKVVLKNYQDMVVEGCGCR
notes: initial methionine typical of the cytoplasmic product, told in words (met-hBMP-2); human bone morphogenetic protein-2; vendor declares dimeric form (~26 kDa); Commercial product; also called hBMP-2 GenScript; GenScript hBMP-2; source: bought: GenScript (cytoplasmic, E. coli-derived)
- stoichiometry N [1]: 2

B2: periplasmic human bone morphogenetic protein-2 (hBMP-2 Biosintesis) (natural protein, UniProt P12643 283-396, looked up)
chain: QAKHKQRKRLKSSCKRHPLYVDFSDVGWNDWIVAPPGYHAFYCHGECPFPLADHLNSTNHAIVQTLVNSVNSKIPKACCVPTELSAISMLYLDENEKVVLKNYQDMVVEGCGCR
notes: authentic form without the initial methionine; monomer ~13 kDa, dimer ~26 kDa; also called authentic hBMP-2; our hBMP-2; source: E. coli W3110 with pλPL-DsbA-BMP-2, periplasmic fluid extracted by osmotic shock
- stoichiometry N [2]: 2
